According to patent US20250026792A1, “SELF-ASSEMBLING PEPTIDES WITH HYALURONIC ACID BINDING DOMAINS AND METHODS OF USE THEREOF” (Northwestern University, priority 2022, published 2025):
The star is where a group is joined. Biotin = O=C1N[C@H]2[C@H](CS[C@H]2CCCCC(=O)*)N1

Assays:
Experiment in all cases: plate assay: biotinylated peptide on dried ECM coating (10 ug/cm2), streptavidin-488 fluorescence
[1] = target: T1, collagen type III (human) (human, UniProt P02461 154-1221)
T1 construct: III (human)'; Coated and dried on plates at 10 ug/cm2; also called collagen III
T1 sequence (looked up): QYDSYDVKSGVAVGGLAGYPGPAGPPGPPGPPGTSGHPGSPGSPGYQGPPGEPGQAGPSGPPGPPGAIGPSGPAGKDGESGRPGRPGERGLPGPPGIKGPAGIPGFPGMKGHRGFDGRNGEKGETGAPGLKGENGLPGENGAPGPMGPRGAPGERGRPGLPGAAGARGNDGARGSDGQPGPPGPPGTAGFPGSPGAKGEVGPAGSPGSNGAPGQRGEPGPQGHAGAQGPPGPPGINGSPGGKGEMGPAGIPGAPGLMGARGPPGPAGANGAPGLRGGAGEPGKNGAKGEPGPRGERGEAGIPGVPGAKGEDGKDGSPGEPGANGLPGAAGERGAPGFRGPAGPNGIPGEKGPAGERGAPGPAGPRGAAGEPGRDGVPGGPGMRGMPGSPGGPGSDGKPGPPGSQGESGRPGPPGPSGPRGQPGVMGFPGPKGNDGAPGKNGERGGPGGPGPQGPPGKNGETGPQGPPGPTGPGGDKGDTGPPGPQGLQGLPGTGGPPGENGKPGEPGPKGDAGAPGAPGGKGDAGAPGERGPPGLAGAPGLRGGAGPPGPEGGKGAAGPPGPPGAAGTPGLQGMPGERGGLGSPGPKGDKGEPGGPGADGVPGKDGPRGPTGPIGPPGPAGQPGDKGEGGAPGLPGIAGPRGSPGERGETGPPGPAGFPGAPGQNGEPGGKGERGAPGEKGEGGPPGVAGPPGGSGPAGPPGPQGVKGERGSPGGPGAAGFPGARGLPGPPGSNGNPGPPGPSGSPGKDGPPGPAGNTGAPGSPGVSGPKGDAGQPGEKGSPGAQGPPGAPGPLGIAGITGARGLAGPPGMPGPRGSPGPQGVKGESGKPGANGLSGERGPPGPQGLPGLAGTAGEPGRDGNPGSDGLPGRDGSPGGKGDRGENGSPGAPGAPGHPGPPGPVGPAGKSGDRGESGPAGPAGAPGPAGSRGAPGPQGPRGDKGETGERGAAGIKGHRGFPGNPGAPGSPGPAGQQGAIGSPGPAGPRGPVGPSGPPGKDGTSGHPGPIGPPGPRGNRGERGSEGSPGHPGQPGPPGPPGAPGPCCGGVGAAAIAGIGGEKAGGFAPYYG
Protocol: (§1) Peptides were incubated 24 hours at 37° C. on collagens I-IV, elastin, hyaluronic acid, and Geltrex. Coatings (10 pig/cm²) were previously dried overnight in milli-Q water. Overall significance was assessed using analysis of variance, with Tukey's multiple comparison post-hoc analysis between ECM groups where n=4.
(§2) N-termini biotinylated peptides were added to coated plates at 0, 1, 2.5, 5 and 10 mg/ml overnight at 37° C. in phosphate buffered saline (PBS), pH 7.4, after which the plates were washed three times with PBS. Fluorescent streptavidin-488 (4 μg/mL) was added to each well and incubated at 37° C. temperature for 24 hours, then thoroughly washed with PBS. The plates were read with a fluorescence microplate reader for fluorescence intensity (Ex 490 nm, Em 525 nm). All data were normalized to the background fluorescence intensity of Streptavidin-488.

[2] = target: T2, elastin (bovine) (bovine, UniProt P04985 27-747, limits assumed)
T2 construct: Coated and dried on plates at 10 ug/cm2
T2 sequence (looked up): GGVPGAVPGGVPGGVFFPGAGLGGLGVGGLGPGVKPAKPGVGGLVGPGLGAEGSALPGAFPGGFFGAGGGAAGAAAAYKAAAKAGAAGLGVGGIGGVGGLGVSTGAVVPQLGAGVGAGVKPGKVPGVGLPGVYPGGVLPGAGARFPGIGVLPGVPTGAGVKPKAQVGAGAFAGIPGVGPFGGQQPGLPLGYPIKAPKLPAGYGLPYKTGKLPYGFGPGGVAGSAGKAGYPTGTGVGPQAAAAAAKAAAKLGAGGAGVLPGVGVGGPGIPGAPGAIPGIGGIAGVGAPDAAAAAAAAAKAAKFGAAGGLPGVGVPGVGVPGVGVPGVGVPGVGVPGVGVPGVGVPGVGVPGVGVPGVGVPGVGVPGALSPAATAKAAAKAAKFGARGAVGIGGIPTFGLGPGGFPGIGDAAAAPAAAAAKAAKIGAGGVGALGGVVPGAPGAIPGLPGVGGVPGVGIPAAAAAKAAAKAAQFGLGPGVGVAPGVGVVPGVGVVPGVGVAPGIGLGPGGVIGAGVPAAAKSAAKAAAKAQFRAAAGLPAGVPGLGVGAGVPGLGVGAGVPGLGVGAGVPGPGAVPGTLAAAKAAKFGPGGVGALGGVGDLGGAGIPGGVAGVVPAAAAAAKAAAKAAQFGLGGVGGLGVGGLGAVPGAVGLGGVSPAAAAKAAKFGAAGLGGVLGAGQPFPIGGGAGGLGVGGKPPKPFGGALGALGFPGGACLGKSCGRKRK
Protocol: as §1, §2

[3] = target: T3, collagen type IV (mouse) (mouse, UniProt P02463 28-1669; P08122 26-1707)
T3 construct: IV (mouse)'; Coated and dried on plates at 10 ug/cm2; also called collagen IV
Protocol: as §1, §2

[4] = target: T4, collagen type I (rat) (rat, UniProt P02454 152-1207; P02466 86-1125)
T4 construct: Coated and dried on 96-well plates at 10 ug/cm2; also called collagen I
T4 sequence (P02454 152-1207, chain 1 of 2): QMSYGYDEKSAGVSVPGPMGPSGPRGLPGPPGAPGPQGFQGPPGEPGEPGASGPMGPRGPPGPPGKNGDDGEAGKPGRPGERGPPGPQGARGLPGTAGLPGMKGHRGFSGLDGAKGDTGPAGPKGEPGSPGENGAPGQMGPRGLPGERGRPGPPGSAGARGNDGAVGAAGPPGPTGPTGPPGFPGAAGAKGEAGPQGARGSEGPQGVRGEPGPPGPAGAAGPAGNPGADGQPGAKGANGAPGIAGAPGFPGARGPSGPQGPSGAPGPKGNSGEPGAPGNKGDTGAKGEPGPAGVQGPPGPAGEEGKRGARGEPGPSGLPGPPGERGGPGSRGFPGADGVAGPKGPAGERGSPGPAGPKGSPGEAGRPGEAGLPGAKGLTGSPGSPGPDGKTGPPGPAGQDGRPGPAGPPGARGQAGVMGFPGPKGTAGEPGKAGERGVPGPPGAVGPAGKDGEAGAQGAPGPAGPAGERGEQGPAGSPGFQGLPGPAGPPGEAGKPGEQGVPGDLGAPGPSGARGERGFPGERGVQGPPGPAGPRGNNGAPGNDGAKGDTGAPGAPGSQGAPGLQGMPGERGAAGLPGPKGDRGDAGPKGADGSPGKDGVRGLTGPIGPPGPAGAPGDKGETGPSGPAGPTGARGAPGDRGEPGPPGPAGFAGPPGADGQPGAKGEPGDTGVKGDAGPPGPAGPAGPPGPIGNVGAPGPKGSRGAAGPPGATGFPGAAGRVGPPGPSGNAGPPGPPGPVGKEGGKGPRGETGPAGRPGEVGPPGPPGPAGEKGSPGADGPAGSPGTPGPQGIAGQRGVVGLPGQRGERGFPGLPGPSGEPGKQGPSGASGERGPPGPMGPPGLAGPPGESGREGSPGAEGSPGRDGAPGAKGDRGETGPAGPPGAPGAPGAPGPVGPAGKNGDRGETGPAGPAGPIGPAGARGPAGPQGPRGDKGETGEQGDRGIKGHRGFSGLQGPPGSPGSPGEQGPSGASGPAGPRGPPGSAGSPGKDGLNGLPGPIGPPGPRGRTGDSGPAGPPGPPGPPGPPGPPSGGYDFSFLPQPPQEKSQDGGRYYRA
T4 sequence (P02466 86-1125, chain 2 of 2): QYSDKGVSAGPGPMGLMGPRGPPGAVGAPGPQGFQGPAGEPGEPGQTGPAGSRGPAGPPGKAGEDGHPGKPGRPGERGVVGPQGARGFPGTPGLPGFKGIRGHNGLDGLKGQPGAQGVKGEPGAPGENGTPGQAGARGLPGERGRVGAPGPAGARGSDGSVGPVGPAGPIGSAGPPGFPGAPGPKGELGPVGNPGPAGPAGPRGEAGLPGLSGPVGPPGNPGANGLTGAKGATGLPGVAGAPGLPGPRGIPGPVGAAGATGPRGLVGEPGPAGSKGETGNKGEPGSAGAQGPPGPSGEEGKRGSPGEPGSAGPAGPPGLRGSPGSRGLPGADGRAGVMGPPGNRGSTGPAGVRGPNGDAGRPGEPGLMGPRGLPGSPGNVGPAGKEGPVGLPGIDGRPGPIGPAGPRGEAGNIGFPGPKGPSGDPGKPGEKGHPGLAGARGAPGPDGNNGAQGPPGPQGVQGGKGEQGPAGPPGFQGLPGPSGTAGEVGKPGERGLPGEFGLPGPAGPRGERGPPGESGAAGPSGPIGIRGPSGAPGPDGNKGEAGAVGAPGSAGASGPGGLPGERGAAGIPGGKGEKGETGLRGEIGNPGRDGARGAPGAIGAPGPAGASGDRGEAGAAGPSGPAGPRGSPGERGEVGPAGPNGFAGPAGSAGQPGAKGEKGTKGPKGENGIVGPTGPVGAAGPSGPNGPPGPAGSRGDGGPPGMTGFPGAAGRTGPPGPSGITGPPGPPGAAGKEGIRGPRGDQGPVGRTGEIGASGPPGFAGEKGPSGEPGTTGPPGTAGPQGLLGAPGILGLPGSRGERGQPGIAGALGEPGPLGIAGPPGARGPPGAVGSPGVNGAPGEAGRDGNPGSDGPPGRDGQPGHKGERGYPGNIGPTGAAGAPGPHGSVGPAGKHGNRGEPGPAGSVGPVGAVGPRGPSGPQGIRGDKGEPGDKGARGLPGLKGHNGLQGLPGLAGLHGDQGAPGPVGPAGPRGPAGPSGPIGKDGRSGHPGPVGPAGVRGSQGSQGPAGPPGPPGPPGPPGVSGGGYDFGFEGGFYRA
Protocol: as §1, §2

Measured: binding result

B1: Peptide 17x-3 (peptide)
peptide: Biotin-KTKATVLIKNKQKSKNALKQKIVLLSK-OH
SMILES: CC[C@H](C)[C@H](NC(=O)[C@H](CC(C)C)NC(=O)[C@@H](NC(=O)[C@@H](NC(=O)[C@H](C)NC(=O)[C@H](CCCCN)NC(=O)[C@@H](NC(=O)[C@H](CCCCN)NC(=O)CCCC[C@@H]1SC[C@@H]2NC(=O)N[C@@H]21)[C@@H](C)O)[C@@H](C)O)C(C)C)C(=O)N[C@@H](CCCCN)C(=O)N[C@@H](CC(N)=O)C(=O)N[C@@H](CCCCN)C(=O)N[C@@H](CCC(N)=O)C(=O)N[C@@H](CCCCN)C(=O)N[C@@H](CO)C(=O)N[C@@H](CCCCN)C(=O)N[C@@H](CC(N)=O)C(=O)N[C@@H](C)C(=O)N[C@@H](CC(C)C)C(=O)N[C@@H](CCCCN)C(=O)N[C@@H](CCC(N)=O)C(=O)N[C@@H](CCCCN)C(=O)N[C@H](C(=O)N[C@H](C(=O)N[C@@H](CC(C)C)C(=O)N[C@@H](CC(C)C)C(=O)N[C@@H](CO)C(=O)N[C@@H](CCCCN)C(=O)O)C(C)C)[C@@H](C)CC
notes: De novo designed 27-residue peptide, custom synthesized; the biotinylated peptides are used in every experiment; Self-assembles at higher concentrations
no binding (tested: 5.0 mg/ml): all assays above

B2: Peptide BHP3 (peptide)
peptide: Biotin-TQLRNKYTFLARARNALAVRTKQNIKS-OH
SMILES: CC[C@H](C)[C@H](NC(=O)[C@H](CC(N)=O)NC(=O)[C@H](CCC(N)=O)NC(=O)[C@H](CCCCN)NC(=O)[C@@H](NC(=O)[C@H](CCCNC(=N)N)NC(=O)[C@@H](NC(=O)[C@H](C)NC(=O)[C@H](CC(C)C)NC(=O)[C@H](C)NC(=O)[C@H](CC(N)=O)NC(=O)[C@H](CCCNC(=N)N)NC(=O)[C@H](C)NC(=O)[C@H](CCCNC(=N)N)NC(=O)[C@H](C)NC(=O)[C@H](CC(C)C)NC(=O)[C@H](Cc1ccccc1)NC(=O)[C@@H](NC(=O)[C@H](Cc1ccc(O)cc1)NC(=O)[C@H](CCCCN)NC(=O)[C@H](CC(N)=O)NC(=O)[C@H](CCCNC(=N)N)NC(=O)[C@H](CC(C)C)NC(=O)[C@H](CCC(N)=O)NC(=O)[C@@H](NC(=O)CCCC[C@@H]1SC[C@@H]2NC(=O)N[C@@H]21)[C@@H](C)O)[C@@H](C)O)C(C)C)[C@@H](C)O)C(=O)N[C@@H](CCCCN)C(=O)N[C@@H](CO)C(=O)O
notes: Designed from the 42 residue peptide BH-P; biotinylated synthetic peptide
no binding (tested: 5.0 mg/ml): all assays above
